US20080267976A1

target: V158 FcγRIIIa (UniProt P08637); assay: competition AlphaScreen
Sequence (P08637 17-208 F176V): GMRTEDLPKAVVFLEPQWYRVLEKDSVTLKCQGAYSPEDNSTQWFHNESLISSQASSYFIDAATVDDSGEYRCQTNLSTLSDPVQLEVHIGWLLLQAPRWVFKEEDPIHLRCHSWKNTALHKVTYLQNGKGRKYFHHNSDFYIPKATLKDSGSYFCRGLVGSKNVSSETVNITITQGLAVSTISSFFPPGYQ

Row | Substance | IC50
1 | S239D/I332E/S324G H3.69_V2_L3.71 AC10 IgG(1/2) ELLGG | 8.93 nM
2 | S239D/I332E/K326T H3.69_V2_L3.71 AC10 IgG(1/2) ELLGG | 5.26 nM
3 | S239D/I332E/A330Y H3.69_V2_L3.71 AC10 IgG(1/2) ELLGG | 52 nM
4 | S239D/I332E/A330Y/K326E H3.69_V2_L3.71 AC10 IgG(1/2) ELLGG | 4 nM
5 | S239D/I332E H3.69_L3.71 AC10 IgG1 | 5.1 nM
6 | S239D/I332E/K246H/S324I H3.69_V2_L3.71 AC10 IgG(1/2) ELLGG | 10.7 nM
7 | S239D/I332E/K246H/T260H H3.69_V2_L3.71 AC10 IgG(1/2) ELLGG | 5.79 nM
8 | S239D/I332E/H268E H3.69_V2_L3.71 AC10 IgG(1/2) ELLGG | 0.882 nM
9 | S239D/I332E/S298A H3.69_V2_L3.71 AC10 IgG(1/2) ELLGG | 1.28 nM

target: V158 FcγRIIIa (UniProt P08637); assay: competition AlphaScreen; second row

Row | Substance | IC50
10 | S239D/I332E H3.69_L3.71 AC10 IgG1 | 0.531 nM
